We go through 4 molecules from patent US6830937 (Bristol-Myers Squibb, dated 2004).

The target of test [1] is T1, CD28 receptor (human, UniProt P10747 19-220). In words: cell-based or functional assay.
The target of test [2] is T1, CD28 receptor. In words: flow cytometry, direct staining of phytohemagglutinin-stimulated T cells.
Test [3] addresses T1, CD28 receptor. In words: flow cytometry, direct staining of CD28+ CHO cells.
The target of test [4] is B7 antigen (UniProt P33681). In words: flow cytometry, direct staining of Raji cells after preincubation with unlabeled BB-1. On the technique in general: A flow cytometer gives signals particle by particle.
Test [5] has as its target B7 antigen (UniProt P33681). In words: flow cytometry, direct staining of 5E1 cells after preincubation with unlabeled BB-1.
Test [6] has as its target B7 antigen (UniProt P33681). Kind of test: flow cytometry, direct staining of Jijoye cells (BL), no unlabeled BB-1.
Test [7] addresses B7 antigen (UniProt P33681). Kind of test: flow cytometry, direct staining of 5E1 cells (B-LCL), no unlabeled BB-1.
For test [8], the target named is B7 antigen (UniProt P33681). In words: flow cytometry, direct staining of Jijoye cells after preincubation with unlabeled BB-1.
Test [9] addresses B7Ig fusion protein (human) [IgG part: P01857]. Kind of test: competition of 125I-B7Ig binding to immobilized CD28Ig.
The target of test [10] is B7 antigen (UniProt P33681). Kind of test: flow cytometry, direct staining of Daudi cells (BL), no unlabeled BB-1.
The target in test [11] is B7 antigen (UniProt P33681). Kind of test: flow cytometry, direct staining of T51 cells after preincubation with unlabeled BB-1.
Test [12] has as its target B7 antigen (UniProt P33681). Kind of test: flow cytometry, direct staining of Raji cells (BL), no unlabeled BB-1.
Test [13] concerns the target B7 antigen (UniProt P33681). In words: cell-based or functional assay.
The target in test [14] is B7 antigen (UniProt P33681). In words: flow cytometry, direct staining of T51 cells (B-LCL), no unlabeled BB-1.
Test [15] has as its target B7 antigen (UniProt P33681). Kind of test: flow cytometry, direct staining of Daudi cells after preincubation with unlabeled BB-1.

Consider mAb 9.3 (Fab fragments), for which the [3H]-T incorporation by PHA blasts stimulated with B7+ CHO cells (40:1), 9.3 Fab at 10 µg/ml in the test with CD28 receptor [1] was determined as 132000 cpm.

In the test with CD28 receptor [1], “monoclonal antibody (mAb) 9.3 (anti-CD28)” yielded a [3H]-T incorporation by PBL, +Anti-CD3, Exp. 1, mAb 9.3 (immob.) of 137000 cpm; a [3H]-T incorporation by PBL, +Anti-CD3, Exp. 1, mAb 9.3 (soln.) of 156000 cpm; a [3H]-T incorporation by PBL, +Anti-CD3, Exp. 2, mAb 9.3 (soln.) of 75800 cpm; a [3H]-T incorporation by PBL, -Anti-CD3, Exp. 1, mAb 9.3 (immob.) of 100 cpm. In addition, in the test with CD28 receptor [1], the [3H]-T incorporation by PBL, -Anti-CD3, Exp. 1, mAb 9.3 (soln.) was found to be 300 cpm; the [3H]-T incorporation by PBL, -Anti-CD3, Exp. 2, mAb 9.3 (soln.) turned out to be 400 cpm; the half-maximal inhibition of CD28-mediated adhesion (PM lymphoblastoid cells to CD28+ CHO cells) turned out to be 10 nM; the inhibition of adhesion of B7 transfected COS cells to CD28+ CHO cells when EDTA was omitted came out at 40%. Also, in the test with CD28 receptor [1], the reduction of adhesion of T51 cells to CD28+ CHO cells by mAb 9.3 alone (no EDTA) came to 62% and the reduction of adhesion of T51 cells to CD28+ CHO cells by mAb 9.3 plus EDTA was 93%. The molecule also came in with a mean channel fluorescence (linear fluorescence units) in the test with CD28 receptor [2] of 11.3. Besides, the mean channel fluorescence (linear fluorescence units) with CD28 receptor [3] came to 116.

Broadly, the IC50 is the concentration that inhibits the measured activity by half. A high value points to lower potency. For the molecule mAb BB-1 (anti-B7) (antibody), the mean fluorescence, +COLD was 2.8 linear units with B7 antigen [4]; 2.4 linear units with B7 antigen [5]; 2.8 linear units with B7 antigen [8]; 3 linear units with B7 antigen [11]; 2.8 linear units in the test with B7 antigen [15]. Also, the mean fluorescence, -COLD with B7 antigen [6] was found to be 17.8 linear units; with B7 antigen [7], 13 linear units; with B7 antigen [10] it was 6.4 linear units; with B7 antigen [12], 7.1 linear units; with B7 antigen [14], 16.4 linear units. The IC50 in test [9] stood at 140 nM. The [3H]-T incorporation by PHA blasts stimulated with B7+ CHO cells (40:1), BB-1 at 10 µg/ml in the test with B7 antigen [13] came out at 98300 cpm. The inhibition of adhesion of Jijoye cells to CD28+ CHO cells with B7 antigen [13] is 60%.

B1: B7 antigen (ligand, UniProt P33681 35-288, looked up)
chain: VIHVTKEVKEVATLSCGHNVSVEELAQTRIYWQKEKKMVLTMMSGDMNIWPEYKNRTIFDITNNLSIVILALRPSDEGTYECVVLKYEKDAFKREHLAEVTLSVKADFPTPSISDFEIPTSNIRRIICSTSGGFPEPHLSWLENGEELNAINTTVSQDPETELYAVSSKLDFNMTTNHSFMCLIKYGHLRVNQTFNWNTTKQEHFPDNLLPSWAITLISVNGIFVICCLTYCFAPRCRERRRNERLRRESVRPV
B1: in the test with CD28 receptor [1], the “adhesion of 51Cr-labeled T51 cells to CD28+ CHO cells relative to CD28- CHO cells, with EDTA” value worked out at 17 fold and the “adhesion of 51Cr-labeled T51 cells to CD28+ CHO cells relative to CD28- CHO cells, without EDTA” value amounted to 5.5 fold.
